According to patent US12692294B2, “Engineered NRG-1 variants with improved selectivity toward ErbB4 but not against ErbB3” (Amgen Inc., priority 2021, dated 2026):
Several values for one entry are separate records, joined by “and”; a condition that tells them apart may be missing. Identical values can stand only once.

Tests used:
[1] = target: T1, ErbB4 (Rattus norvegicus, UniProt Q62956); experiment: In vitro phosphorylation of Akt in neonatal rat cardiomyocytes; format: cell-based; conditions: for EC50: Akt (Serine 473) phosphorylation, neonatal rat cardiomyocytes, 15 minutes treatment, read-out: Cardiomyocyte (CM) (ErbB4) Avg EC50; for Selectivity SC/CM: ratio of EC50s Schwann cells/cardiomyocytes; for CM % Agonism AVG: top value of the Akt phosphorylation data points in cardiomyocytes, wild-type control 100
T1 construct: forming the ErbB2/ErbB4 complex in cardiomyocytes and the ErbB2/ErbB3 complex in Schwann cells; endogenous in cells; host or cells: primary neonatal rat cardiomyocytes (Sprague Dawley pups, 0 to 4 days old)
T1 sequence (Q62956 26-1308): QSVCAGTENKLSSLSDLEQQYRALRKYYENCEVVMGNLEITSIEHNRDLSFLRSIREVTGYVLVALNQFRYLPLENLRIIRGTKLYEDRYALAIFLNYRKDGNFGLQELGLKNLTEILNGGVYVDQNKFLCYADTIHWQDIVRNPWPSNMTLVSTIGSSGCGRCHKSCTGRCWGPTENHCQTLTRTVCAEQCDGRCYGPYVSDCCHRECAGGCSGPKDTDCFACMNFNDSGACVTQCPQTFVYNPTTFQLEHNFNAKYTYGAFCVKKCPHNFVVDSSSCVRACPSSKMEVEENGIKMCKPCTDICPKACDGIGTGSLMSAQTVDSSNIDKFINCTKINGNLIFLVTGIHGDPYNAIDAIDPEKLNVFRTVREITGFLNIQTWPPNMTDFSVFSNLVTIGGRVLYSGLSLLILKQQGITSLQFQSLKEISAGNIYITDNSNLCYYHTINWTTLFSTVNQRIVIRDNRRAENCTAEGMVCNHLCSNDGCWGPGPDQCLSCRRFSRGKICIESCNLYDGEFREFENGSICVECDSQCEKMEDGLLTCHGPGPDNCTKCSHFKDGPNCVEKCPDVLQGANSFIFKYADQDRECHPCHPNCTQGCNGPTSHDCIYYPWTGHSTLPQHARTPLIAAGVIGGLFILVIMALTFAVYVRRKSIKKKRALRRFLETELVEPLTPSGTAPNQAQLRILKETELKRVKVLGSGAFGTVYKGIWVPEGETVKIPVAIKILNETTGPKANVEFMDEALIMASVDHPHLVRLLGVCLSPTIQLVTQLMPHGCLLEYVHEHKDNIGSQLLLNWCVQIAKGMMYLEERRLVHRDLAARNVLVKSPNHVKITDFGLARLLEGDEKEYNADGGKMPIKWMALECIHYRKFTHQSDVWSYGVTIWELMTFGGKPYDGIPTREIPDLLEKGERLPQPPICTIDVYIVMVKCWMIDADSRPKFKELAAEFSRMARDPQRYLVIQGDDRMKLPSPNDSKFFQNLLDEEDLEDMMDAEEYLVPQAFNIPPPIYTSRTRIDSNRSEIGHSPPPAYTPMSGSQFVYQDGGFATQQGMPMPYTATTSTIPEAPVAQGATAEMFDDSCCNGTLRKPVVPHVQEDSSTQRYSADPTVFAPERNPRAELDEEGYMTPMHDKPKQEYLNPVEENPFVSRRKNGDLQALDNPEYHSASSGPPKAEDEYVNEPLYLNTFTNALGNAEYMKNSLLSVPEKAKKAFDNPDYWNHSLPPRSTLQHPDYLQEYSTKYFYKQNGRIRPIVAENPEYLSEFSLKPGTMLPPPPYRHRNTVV
T1 sequence (P06494 23-1257 partner): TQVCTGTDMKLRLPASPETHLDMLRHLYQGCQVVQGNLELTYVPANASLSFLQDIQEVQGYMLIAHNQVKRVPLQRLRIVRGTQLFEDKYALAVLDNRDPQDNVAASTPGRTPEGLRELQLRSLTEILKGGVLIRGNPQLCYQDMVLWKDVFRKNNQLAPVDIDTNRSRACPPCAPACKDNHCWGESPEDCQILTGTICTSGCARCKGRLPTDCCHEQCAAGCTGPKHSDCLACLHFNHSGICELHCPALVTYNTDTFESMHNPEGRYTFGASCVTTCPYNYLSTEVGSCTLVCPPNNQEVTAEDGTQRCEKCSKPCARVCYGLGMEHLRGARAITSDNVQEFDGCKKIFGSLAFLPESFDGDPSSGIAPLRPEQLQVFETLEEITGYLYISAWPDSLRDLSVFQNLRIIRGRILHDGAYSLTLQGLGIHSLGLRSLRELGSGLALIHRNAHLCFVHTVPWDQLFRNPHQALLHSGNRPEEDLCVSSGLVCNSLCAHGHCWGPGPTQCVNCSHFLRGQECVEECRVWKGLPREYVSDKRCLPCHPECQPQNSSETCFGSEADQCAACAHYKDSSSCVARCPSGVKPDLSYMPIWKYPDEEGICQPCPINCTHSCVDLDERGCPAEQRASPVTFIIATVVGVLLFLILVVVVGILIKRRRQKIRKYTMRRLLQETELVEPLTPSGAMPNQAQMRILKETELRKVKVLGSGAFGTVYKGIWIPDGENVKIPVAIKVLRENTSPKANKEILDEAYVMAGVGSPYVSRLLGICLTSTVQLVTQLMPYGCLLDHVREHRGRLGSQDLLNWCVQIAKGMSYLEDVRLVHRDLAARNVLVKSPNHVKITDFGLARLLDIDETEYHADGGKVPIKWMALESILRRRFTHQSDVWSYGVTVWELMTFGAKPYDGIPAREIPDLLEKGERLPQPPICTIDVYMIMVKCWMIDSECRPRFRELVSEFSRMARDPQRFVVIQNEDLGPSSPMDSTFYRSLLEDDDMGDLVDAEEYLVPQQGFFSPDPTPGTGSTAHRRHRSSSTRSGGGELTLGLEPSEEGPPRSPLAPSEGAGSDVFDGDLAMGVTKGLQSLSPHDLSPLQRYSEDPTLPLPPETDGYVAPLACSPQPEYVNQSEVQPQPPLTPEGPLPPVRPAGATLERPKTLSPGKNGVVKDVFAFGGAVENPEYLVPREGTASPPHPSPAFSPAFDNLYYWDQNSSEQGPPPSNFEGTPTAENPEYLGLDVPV
Protocol: (§1) In Vitro Phosphorylation of Akt in Neonatal Rat Cardiomyocytes and Rat Schwann Cells by Neuregulin Variants
(§2) Specificity of neuregulin variants towards cardiomyocytes (ErbB4) versus Schwann cells (ErbB3) was tested by measuring Akt activity generated by formation of the ErbB2/ErbB4 and ErbB2/ErbB3 complexes. Upon activation by neuregulin, the ErbB4 and ErbB3 receptors dimerize preferentially with the ErbB2 co-receptor, forming the ErbB2/ErbB4 complex in cardiomyocytes and the ErbB2/ErbB3 complex in Schwann cells, both of which signal through the Akt pathway. Neonatal rat cardiomyocytes were isolated from hearts of Sprague Dawley rat pups at 0 to 4 days old according to manufacturer's protocol using the Neomyt kit and plated on Surecoat plates in NS media containing serum (all from Cellultron Life Technologies, Baltimore, MD). Rat Schwann cells were plated in Poly-D-Lysine coated plates with Dulbecco's modified Eagle's media (DMEM) supplemented with fetal bovine serum (Thermo Fisher) and forskolin (Millipore Sigma).
(§3) After a 24-hour incubation in a humidified incubator maintained at 37° C. and 5% CO2, cardiomyocytes and Schwann cells were washed with serum free media and incubated an additional 16 hours in DMEM supplemented with bovine serum albumin (Sigma). Both cell lines were then treated with titrations of the neuregulin variant molecules for 15 minutes, upon which cells were lysed in lysis buffer (Meso Scale Discovery (MSD)). For detection of Akt phosphorylation, lysates were added to the Multi-Spot 96-Well 4-Spot Phospho (Serine 473)/Total Akt plates (MSD), incubated according to the manufacturer's protocol and read in the SECTOR Imager 6000 (MSD). For both cell assays, the percent phosphorylation of Akt was calculated by multiplying the phospho Akt signal by 2, then dividing by the phospho Akt signal added to the total Akt signal and then multiplying by 100. The phosphorylation of Akt data points were fitted using a log (agonist) versus response, variable slope (4 parameters) analysis in GraphPad Prism to generate EC50 curves. The CM % agonism reflect the top value of the data points.

[2] = target: T2, ErbB3 (Rattus norvegicus, UniProt Q62799); experiment: In vitro phosphorylation of Akt in rat Schwann cells; format: cell-based; conditions: Akt (Serine 473) phosphorylation, 15 minutes treatment
T2 construct: forming the ErbB2/ErbB4 complex in cardiomyocytes and the ErbB2/ErbB3 complex in Schwann cells; endogenous in cells; host or cells: rat Schwann cells
T2 sequence (Q62799 20-1339): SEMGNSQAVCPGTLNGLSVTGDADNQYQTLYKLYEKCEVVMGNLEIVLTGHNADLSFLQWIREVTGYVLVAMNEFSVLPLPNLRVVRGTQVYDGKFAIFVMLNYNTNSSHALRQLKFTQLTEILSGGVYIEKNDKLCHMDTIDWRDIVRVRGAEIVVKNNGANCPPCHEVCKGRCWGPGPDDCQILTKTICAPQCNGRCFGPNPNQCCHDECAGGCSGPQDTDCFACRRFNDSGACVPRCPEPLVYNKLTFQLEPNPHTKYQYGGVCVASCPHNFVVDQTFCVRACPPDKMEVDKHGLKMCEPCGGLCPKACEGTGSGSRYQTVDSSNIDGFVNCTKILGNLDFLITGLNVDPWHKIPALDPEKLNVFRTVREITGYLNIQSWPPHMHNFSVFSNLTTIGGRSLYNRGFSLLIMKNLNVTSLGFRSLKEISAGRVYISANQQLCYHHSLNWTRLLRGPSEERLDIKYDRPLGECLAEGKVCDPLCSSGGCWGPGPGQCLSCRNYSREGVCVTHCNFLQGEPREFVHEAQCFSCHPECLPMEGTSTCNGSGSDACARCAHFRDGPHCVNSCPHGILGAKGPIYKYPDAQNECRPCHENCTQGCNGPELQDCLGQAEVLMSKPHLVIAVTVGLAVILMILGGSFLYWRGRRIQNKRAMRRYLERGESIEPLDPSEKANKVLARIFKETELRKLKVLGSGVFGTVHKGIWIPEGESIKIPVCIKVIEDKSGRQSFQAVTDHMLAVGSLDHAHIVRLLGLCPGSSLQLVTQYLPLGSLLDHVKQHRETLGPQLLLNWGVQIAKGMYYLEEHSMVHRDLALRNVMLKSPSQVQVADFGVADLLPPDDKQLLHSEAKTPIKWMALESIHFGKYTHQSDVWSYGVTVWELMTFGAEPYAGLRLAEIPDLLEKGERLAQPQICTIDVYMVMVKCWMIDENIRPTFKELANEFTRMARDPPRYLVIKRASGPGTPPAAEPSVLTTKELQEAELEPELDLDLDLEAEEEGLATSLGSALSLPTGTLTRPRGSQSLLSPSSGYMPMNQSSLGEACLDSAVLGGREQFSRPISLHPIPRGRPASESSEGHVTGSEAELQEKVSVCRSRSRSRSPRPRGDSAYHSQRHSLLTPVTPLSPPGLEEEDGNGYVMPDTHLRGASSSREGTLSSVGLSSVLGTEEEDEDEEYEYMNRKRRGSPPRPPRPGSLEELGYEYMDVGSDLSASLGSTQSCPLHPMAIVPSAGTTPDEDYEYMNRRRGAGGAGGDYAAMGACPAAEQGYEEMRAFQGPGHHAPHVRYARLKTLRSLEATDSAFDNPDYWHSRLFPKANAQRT
T2 sequence (P06494 23-1257 partner): as the sequence (P06494 23-1257 partner) above
Protocol: as §1, §2, §3

EC50 [1]	Selectivity SC/CM [1]	CM % Agonism AVG [1] [%]	Schwann cells (SC) (ErbB3) Avg EC50 (M) [2]	Molecule
0.15 nM and 0.154 nM and 0.28 nM and 0.253 nM	–	–	–	Wild-type as control: wild-type neuregulin sequence used as control in the Akt assays; construct not specified (wild-type fragment: SEQ ID NO: 112) (protein, chains of the parent or of the whole protein) SHLVKCAEKEKTFCVNGGECFMVKDLSNPSRYLCKCPNEFTGDRCQNYVMASFYKAEELYQ
0.3 nM	>10000	85.4	inactive	:huFcSEFL2(desK)vl31(+):G4SG4:huNRG1(S177-Q237)(NRGE1C): N-terminal Fc fusion of NRG1 variant SEQ ID NO:124 (protein, huFcSEFL2(desK)v131(+)G4SG4huNRG1(S177-Q237) (NRGE1C)) DKTHTCPPCPAPELLGGPSVFLFPPKPKDTLMISRTPEVTCVVVDVSHEDPEVKFNWYVDGVEVHNAKTKPCEEQYGSTYRCVSVLTVLHQDWLNGKEYKCKVSNKALPAPIEKTISKAKGQPREPQVYTLPPSREKMTKNQVSLTCLVKGFYPSDIAVEWESNGQPENNYKTTPPVLKSDGSFFLYSKLTVDKSRWQQGNVFSCSVMHEALHNHYTQKSLSLSPGGGGGSGGGGSHLVKCGEKHKSFCVNGGECFMIEGPSNPSRYLCKCPNEFTGDRCQEDFMASFYKAEELYQDKTHTCPPCPAPELLGGPSVFLFPPKPKDTLMISRTPEVTCVVVDVSHEDPEVKFNWYVDGVEVHNAKTKPCEEQYGSTYRCVSVLTVLHQDWLNGKEYKCKVSNKALPAPIEKTISKAKGQPREPQVYTLPPSREEMTENQVSLTCLVEGFYPSDIAVEWESNGQPENNYETTPPVLDSDGSFFLYSDLTVDKSRWQQGNVFSCSVMHEALHNHYTQKSLSLSPGK
0.23 nM	>10000	88.7	inactive	:huFcSEFL2(desK)vl31(+):G4SG4:huNRG1(S177-Q237)(NRGE1D): N-terminal Fc fusion of NRG1 variant SEQ ID NO:131 (protein, huFcSEFL2(desK)v131(+)G4SG4huNRG1(S177-Q237) (NRGE1D)) DKTHTCPPCPAPELLGGPSVFLFPPKPKDTLMISRTPEVTCVVVDVSHEDPEVKFNWYVDGVEVHNAKTKPCEEQYGSTYRCVSVLTVLHQDWLNGKEYKCKVSNKALPAPIEKTISKAKGQPREPQVYTLPPSREKMTKNQVSLTCLVKGFYPSDIAVEWESNGQPENNYKTTPPVLKSDGSFFLYSKLTVDKSRWQQGNVFSCSVMHEALHNHYTQKSLSLSPGGGGGSGGGGSHLVKCGESHKSFCVNGGECYMVEGSSIPSRYLCKCPNEFTGDRCQEDFMASFYKAEELYQDKTHTCPPCPAPELLGGPSVFLFPPKPKDTLMISRTPEVTCVVVDVSHEDPEVKFNWYVDGVEVHNAKTKPCEEQYGSTYRCVSVLTVLHQDWLNGKEYKCKVSNKALPAPIEKTISKAKGQPREPQVYTLPPSREEMTENQVSLTCLVEGFYPSDIAVEWESNGQPENNYETTPPVLDSDGSFFLYSDLTVDKSRWQQGNVFSCSVMHEALHNHYTQKSLSLSPGK
3.4 nM	>10000	91.6	inactive	:huNRG1(S177-F229)(NRGE1C)::2X(G4A)G4::huFcSEFL2v131(+): Fc fusion of NRG1 variant SEQ ID NO:117 (protein, huNRG1(S177-F229)(NRGE1C) ::2X(G4A)G4::huFcSEFL2v131(+)) SHLVKCGEKHKSFCVNGGECFMIEGPSNPSRYLCKCPNEFTGDRCQEDFMASFGGGGAGGGGAGGGGDKTHTCPPCPAPELLGGPSVFLFPPKPKDTLMISRTPEVTCVVVDVSHEDPEVKFNWYVDGVEVHNAKTKPCEEQYGSTYRCVSVLTVLHQDWLNGKEYKCKVSNKALPAPIEKTISKAKGQPREPQVYTLPPSREKMTKNQVSLTCLVKGFYPSDIAVEWESNGQPENNYKTTPPVLKSDGSFFLYSKLTVDKSRWQQGNVFSCSVMHEALHNHYTQKSLSLSPGKDKTHTCPPCPAPELLGGPSVFLFPPKPKDTLMISRTPEVTCVVVDVSHEDPEVKFNWYVDGVEVHNAKTKPCEEQYGSTYRCVSVLTVLHQDWLNGKEYKCKVSNKALPAPIEKTISKAKGQPREPQVYTLPPSREEMTENQVSLTCLVEGFYPSDIAVEWESNGQPENNYETTPPVLDSDGSFFLYSDLTVDKSRWQQGNVFSCSVMHEALHNHYTQKSLSLSPGK
2.9 nM	>10000	94	inactive	:huNRG1(S177-F229)(NRGE1C)::2X(G4E)G4::huFcSEFL2v131(+): Fc fusion of NRG1 variant SEQ ID NO:117 (protein, huNRG1(S177-F229)(NRGE1C) ::2X(G4E)G4::huFcSEFL2v131(+)) SHLVKCGEKHKSFCVNGGECFMIEGPSNPSRYLCKCPNEFTGDRCQEDFMASFGGGGEGGGGEGGGGDKTHTCPPCPAPELLGGPSVFLFPPKPKDTLMISRTPEVTCVVVDVSHEDPEVKFNWYVDGVEVHNAKTKPCEEQYGSTYRCVSVLTVLHQDWLNGKEYKCKVSNKALPAPIEKTISKAKGQPREPQVYTLPPSREKMTKNQVSLTCLVKGFYPSDIAVEWESNGQPENNYKTTPPVLKSDGSFFLYSKLTVDKSRWQQGNVFSCSVMHEALHNHYTQKSLSLSPGKDKTHTCPPCPAPELLGGPSVFLFPPKPKDTLMISRTPEVTCVVVDVSHEDPEVKFNWYVDGVEVHNAKTKPCEEQYGSTYRCVSVLTVLHQDWLNGKEYKCKVSNKALPAPIEKTISKAKGQPREPQVYTLPPSREEMTENQVSLTCLVEGFYPSDIAVEWESNGQPENNYETTPPVLDSDGSFFLYSDLTVDKSRWQQGNVFSCSVMHEALHNHYTQKSLSLSPGK
2 nM	>10000	87.1	inactive	:huNRG1(S177-F229)(NRGE1D)::2X(G4A)G4::huFcSEFL2v131(+): Fc fusion of NRG1 variant SEQ ID NO:126 (protein, huNRG1(S177-F229)(NRGE1D) ::2X(G4A)G4::huFcSEFL2v131(+)) SHLVKCGESHKSFCVNGGECYMVEGSSIPSRYLCKCPNEFTGDRCQEDFMASFGGGGAGGGGAGGGGDKTHTCPPCPAPELLGGPSVFLFPPKPKDTLMISRTPEVTCVVVDVSHEDPEVKFNWYVDGVEVHNAKTKPCEEQYGSTYRCVSVLTVLHQDWLNGKEYKCKVSNKALPAPIEKTISKAKGQPREPQVYTLPPSREKMTKNQVSLTCLVKGFYPSDIAVEWESNGQPENNYKTTPPVLKSDGSFFLYSKLTVDKSRWQQGNVFSCSVMHEALHNHYTQKSLSLSPGKDKTHTCPPCPAPELLGGPSVFLFPPKPKDTLMISRTPEVTCVVVDVSHEDPEVKFNWYVDGVEVHNAKTKPCEEQYGSTYRCVSVLTVLHQDWLNGKEYKCKVSNKALPAPIEKTISKAKGQPREPQVYTLPPSREEMTENQVSLTCLVEGFYPSDIAVEWESNGQPENNYETTPPVLDSDGSFFLYSDLTVDKSRWQQGNVFSCSVMHEALHNHYTQKSLSLSPGK
1.9 nM	>10000	91.9	inactive	:huNRG1(S177-F229)(NRGE1D)::2X(G4E)G4::huFcSEFL2v131(+): Fc fusion of NRG1 variant SEQ ID NO:126 (protein, huNRG1(S177-F229)(NRGE1D) ::2X(G4E)G4::huFcSEFL2v131(+)) SHLVKCGESHKSFCVNGGECYMVEGSSIPSRYLCKCPNEFTGDRCQEDFMASFGGGGEGGGGEGGGGDKTHTCPPCPAPELLGGPSVFLFPPKPKDTLMISRTPEVTCVVVDVSHEDPEVKFNWYVDGVEVHNAKTKPCEEQYGSTYRCVSVLTVLHQDWLNGKEYKCKVSNKALPAPIEKTISKAKGQPREPQVYTLPPSREKMTKNQVSLTCLVKGFYPSDIAVEWESNGQPENNYKTTPPVLKSDGSFFLYSKLTVDKSRWQQGNVFSCSVMHEALHNHYTQKSLSLSPGKDKTHTCPPCPAPELLGGPSVFLFPPKPKDTLMISRTPEVTCVVVDVSHEDPEVKFNWYVDGVEVHNAKTKPCEEQYGSTYRCVSVLTVLHQDWLNGKEYKCKVSNKALPAPIEKTISKAKGQPREPQVYTLPPSREEMTENQVSLTCLVEGFYPSDIAVEWESNGQPENNYETTPPVLDSDGSFFLYSDLTVDKSRWQQGNVFSCSVMHEALHNHYTQKSLSLSPGK
